Biological target: NRP1-PerCP-Cy5.5 (carrier free recombinant neuropilin-1 coupled to PerCP-Cy5.5) (UniProt O14786)
Assay: FRET or BRET; Scheme 3: VEGF (22.4 nM or 11.2 nM, diluted in PBS) incubated simultaneously in solution with the donor (RLuc8-Ra02 or RLuc8-4xGly-Ra02, cleared HEK293 lysate) and the acceptor NRP1-PerCP-Cy5.5, both in excess; n-CLZ in BRET assay buffer; BRET ratio magenta filter/blue filter, against a no-VEGF control

Chain of UniProt O14786 (O14786 22-856): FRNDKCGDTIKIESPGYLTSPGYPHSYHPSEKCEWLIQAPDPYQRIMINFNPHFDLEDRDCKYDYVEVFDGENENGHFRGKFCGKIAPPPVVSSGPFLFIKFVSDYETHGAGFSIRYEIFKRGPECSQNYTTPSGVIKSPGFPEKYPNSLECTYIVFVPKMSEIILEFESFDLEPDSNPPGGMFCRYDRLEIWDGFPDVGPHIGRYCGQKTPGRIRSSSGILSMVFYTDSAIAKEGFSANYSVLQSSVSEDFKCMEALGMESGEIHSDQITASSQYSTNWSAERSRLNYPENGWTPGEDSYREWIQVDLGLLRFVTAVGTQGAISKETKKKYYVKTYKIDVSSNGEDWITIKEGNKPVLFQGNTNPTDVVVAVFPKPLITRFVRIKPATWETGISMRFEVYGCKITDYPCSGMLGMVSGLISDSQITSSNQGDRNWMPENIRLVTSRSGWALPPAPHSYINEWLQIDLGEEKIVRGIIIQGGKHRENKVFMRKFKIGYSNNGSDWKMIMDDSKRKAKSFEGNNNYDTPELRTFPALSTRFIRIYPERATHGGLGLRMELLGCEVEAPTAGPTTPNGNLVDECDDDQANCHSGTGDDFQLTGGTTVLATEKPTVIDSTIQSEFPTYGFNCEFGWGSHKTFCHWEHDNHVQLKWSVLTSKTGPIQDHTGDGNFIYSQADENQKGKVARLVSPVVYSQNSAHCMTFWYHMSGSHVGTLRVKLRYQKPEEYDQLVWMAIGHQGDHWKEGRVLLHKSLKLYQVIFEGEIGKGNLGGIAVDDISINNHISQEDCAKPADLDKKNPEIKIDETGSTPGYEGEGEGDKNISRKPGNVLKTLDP

Which results are given for “vascular endothelial growth factor (rhVEGF165) (ligand)”?
BRET ratio (donor RLuc8-4xGly-Ra02, 11.2 nM VEGF): 114 mBU; BRET ratio (donor RLuc8-4xGly-Ra02, 22.4 nM VEGF): 119 mBU; BRET ratio (donor RLuc8-Ra02, 11.2 nM VEGF): 110 mBU; BRET ratio (donor RLuc8-Ra02, 22.4 nM VEGF): 115 mBU
